Results on 19 sequences are retold here after the DeepSol protein solubility set.

The series is described as follows: soluble on expression in E. coli; label from the status in PepcDB or PDB records.
Turning to “MAPDDTVNTLFQVYKTISFWKVLKNTLVIEFGRFFPWMGGKRKIYRVCLGMEIGEKTAIAYKVMPDLFFPEKILIGENSIIGYHTTILTHEYLLSEYRVGEVVIGRDVMVGANVTILPGTVIGDGAVIAAGAVVSVDVPAGSFAYGNPLIIKEKATLTLEHHHHHH”, the “soluble on expression in E. coli” value is “soluble”.

On to “MAPPAQPPPVAVKNTKEAWTKFMKKKAEQAVYPSKESSTLQPKYLFDASTLVLPMCFECRRASRHLEMAINLCSICRANFEAQIASRFFRHDVLLVKRKLEANQDTTNLKE”, for which the “soluble on expression in E. coli” value is given as “not soluble”.

In the case of “MAPPVLKNEDSDLAVREPAAKKSKKSNGKAQAVKSESSESMFMTEATTDENIYPDATFQSYEEFDQKFNVWKAKNLHPFRVASSESLRTEDGSISEKFKYRYVVFHCARYGVPRMRGEGKRPNQNYLPCSCTAMIRLNFQFHEQCLRLTSLETRHSNHTICKDLYEKMCVKEEKRKHVTPRRTMSGPKSRSSSVATAGNADTSLISDRSINVKKEPSEERADSEHSHGQSPVDLHYEVTRPYEVSPSAPISEITTPFVLPTQKVGLNDLVPTSQFSPMDYQSLQNQIILNQVKLNAMTNNVYNPFGNWPASSLVPTPAPPFLTPTPSQVSPALSSSVDENEAPKIFHSLEAVRPIPLRPSQNSAFYQMLNSSSTSPIIAVTKAEVDSVLGAASRLLNDNHLPEDVLHSRVKQLNGLISQWTHS”, the “soluble on expression in E. coli” value is reported as “not soluble”.

As to “MAPSTEDPDTVVEAQRRGSFSKKKNANGWNKVELVDQCAKQMGSEDKQPGGGDVKTENDPSKNGLGSATSNFIQSSVPPSHQTLSNPLQLSPPAEASVAQQSGASQVFPTFQAALGASSDELLQPNATSSSTSSSASTSSIVPVVKFTNQTAPNGSTVATSVGQNVRLTINGKRVGRPPGTFKRPQNNAANSSNSGNDSDMMGDHDLTCRWKSCNSSFQTLKALVDHVQESHVQSTEQEHHAWRCEWEGCDRNETFKALYMLIVHVRRHTGEKPNKCEYPGCGKEYSRLENLKTHRRTHTGEKPYKCEFADCEKAFSNASDRAKHQNRTHSNLKPYSCQIPQCTKSYTDPSSLRKHIKAVHGDDEYEKAKKSRPANYSNRRRPDHRLAPPTGAMSHPYLATPNSGASVVAHSSVHQQNFINMALAQHHHNAQRAQQLMAATGNVMPMMDPASAAAAAQAQAHHQAQAQMLQTHMMQQAQIQAAAQMQAQVQHQAAMQAHAMQQAQMVLQNNLLGAQSLLSPFSPLLPPSRAPNVMAMLQTPPTPTSVAPMFDIMTSRAPMAPVVSAPTAPAPLVPAPVPASPVFDELREQMREVEPLQQQQQQEPMDQDLQDIRVDGDSDDEDEEEPRTPSGALLLPRGGNNGDGGFGGSGSSRASSGSGTMELSAAPISQNGSRASGSGERGMRSFLIADILQLAADFQNERLLSDVLDLAIFDTRDVRSLHNIYQVYIRAHKAIPITRRPLDWNETHQLHNLYHDPRFNRAEHQDSPAIRDRDTRFWRTIAEANTMRQRQIEPVPLDDDDEGYFDEMVHRVQNGRLNEQFMEGFESDDDDGFEDEDDVPGLGIAVYRGRRRVRREALKQANLDIQEAETAGRNVGGFGDEEDRNNRGHDQDRSFLDHYYPPMVVVVETESPQIVRDQEMMRQFEEAKKNVETDEIKKRAEAMQFGTSSSHHHTKTLLIQRALFDKTSSVRRSLLQFITISVDQEELRQSCHATSAPQGAHVVHNVVDEFDSIMRAQEDSNNRILLSLDIPAPSAVTGVSGSITHADNSALQLQQEQPTSSFSSWFPEDDPIYALPPPPPPPAPPRRRRSADNKDDSENIPKKPRHQF”, the “soluble on expression in E. coli” value is “not soluble”.

Regarding “MAPTQAQKVLEAFEDFLKCLDLESYQEKYRPIKTVEQDLPRELNPLPDLYDHYWKPNGNTLHFPDFETFFDQWWEKRLRPLNEFIRKYFWGCSYEFVRLGLEARLYRTAVSIWTQFHFCYRWNASCQLRLTATWELDAQGIDAQIQAEDRLIGIQIKKETYRSEAREGNRFLRRREHSALLEVPYTLQSPEELERKAQRARTREEAYRLWVKIAHHLERLPNGFVIFRESYVKDLENFLKQNATTLSGLIPWDKVAREALTGP”, the “soluble on expression in E. coli” value is “soluble”.

Turning to “MAQLYYKYGTMNSGKTIEILKVAHNYEEQGKPVVIMTSALDTRDGFGIVSSRIGMRREAIPISNDMDIFTFIAQLEEKPYCVLIDESQFLSKQNVYDLARVVDELNVPVMAFGLKNDFQNNLFEGSKHLLLLADKIDEIKTICQYCSKKATMVLRTENGKPVYEGDQIQIGGNETYIPVCRKHYFNPDI”, the “soluble on expression in E. coli” value is listed as “not soluble”.

On to “MAQLYYRYGTMNSGKTIEILKVAYNYEEQGKGVVIMTSALDTRDGVGYVSSRIGMKRPALAIEETTDIFGYIRDLPEKPYCVLVDEAQFLKRHHVYDLARVVDELDIPVMAFGLKNDFRNELFEGSKYLLLLADKIDEIKTICQYCKKKATMVLRTQDGLPVYDGEQIQIGGNETYISVCRKHYFAPMITSNKEQNYDNLEHHHHHH”, for which the “soluble on expression in E. coli” value is recorded as “soluble”.

With “MAQMTMVQAINDALKTELKNDQDVLIFGEDVGVNGGVFRVTEGLQKEFGEDRVFDTPLAESGIGGLAMGLAVEGFRPVMEVQFLGFVFEVFDAIAGQIARTRFRSGGTKTAPVTIRGPFGGGVHTPELHADNLEGILAQSPGLKVVIPSGPYDAKGLLISSIRSNDPVVYLEHMKLYRSFREEVPEEEYTIDIGKANVKKEGNDISIITYGAMVQESMKAAEELEKDGYSVEVIDLRTVQPIDVDTIVASVEKTGRAVVVQEAQRQAGVGAAVVAELSERAILSLEAPIGRVAAADTIYPFTQAENVWLPNKNDIIEKAKETLEF”, the “soluble on expression in E. coli” value is reported as “not soluble”.

On to “MAQMYFYYSAMNAGKSTTLLQSAFNYQERGMNPLIFTAAIDDRFGVGKVSSRIGLEAEAHLFHADTDLLHVIATLHEAEPRHCILMDECQFLSKEQVYQLTEVVDKLDIPVLCYGLRTDFLGELFEGSKYLLSWADKLIELKTICHCGRKANMVIRTDEHGNAISEGDQVAIGGNDKYVSVCRQHYKEALGR”, for which the “soluble on expression in E. coli” value is on record as “not soluble”.

In the case of “MAQRNLDYRLLKDRRNEYGVSQNKLAIACGLSRTYLNLIENGGVTASTKTMRKIFDQLESFNPDLPLTLLFDYVRIRFSTTDVRKIIQELLHLKFEYMLHEDYAFYSYQEQYVMGDIVVMLSHEEDKGVLLELKGRGCRQFETFLLAQKRSWYDFFEDCLKTGGVMKRLDLAINDRVGLLDISDLTKKCQKEECISLFRTFKSYRSGELLKADEKDGMGNTLYIGSLKSEVYFCLYEKDYEQYIKLGIPLDQTETKNRFEIRLKNDRAYHAIQDLLKGRSIESTTFSIINRYLRFADKVEGKRRTNWPLNEQWGRFIGRNRKEIQLTSEPKPYTIERTLNWLGRQVAPTWKMAKELDRLNQTTYIQDMVRNARLSDQHKKILEQQSMAIENLIV”, the “soluble on expression in E. coli” value is listed as “not soluble”.

On to “MAQSKILLYYKFTPIADPKAMMLWQRDMCELLGLKGRILISEHGINGTVGGDMDACKRYVRKMREYPGFRGTEFKWSDGGAEDFPKLSVKVRDEIVAFGAPGELKVDEKGVIGGGVHLKPEEVNKLVEERGDDVVFFDGRNAMEAQIGKFKNAVVPDVRTTHDFIRELESGKYDWMKDKPVVSYCTGGIRCEILSSLMKNRGFKEIYQIDGGIVRYGEKYGNDGLWEGSLYVFDRRMHMEFGNGVQDPGFIQLGHCVQCGAPTNKFEHCINEDECRELVLMCPDCYENPATRNCGREHCKEVAAEAAAAAAV”, for which the “soluble on expression in E. coli” value is listed as “not soluble”.

As to “MAQSTQEAEGEQQRRQAVLRERYLSFLQKSADKPATIEMCERTTVTATIKAFQPSSEHVIVGTVAVA”, the “soluble on expression in E. coli” value is “not soluble”.

“MAQVPPPMTQVVTSAPPPTAAATVVAGAVAGQPQAVIQQGPPPTNIGYPPNATYSMASLYIGDLHPDVSEAMLFEKFSMAGPVLSIRVCRDNTSRLSLGYAYVNFQQPADAERALDTMNFEVIHGRPMRIMWSQRDPAARRAGNGNIFIKNLDRVIDNKSVYDTFSLFGNILSCKVATDDEGNSKGYGFVHFETEHSAQTAIEKVNGMLLSDKKVYVGKFQPRAQRMKELGESGLKYTNVFVKNFGEHLDQEKLSAMFSKFGEITSAVVMTDAQGKPKGFGFVAFADQDAAGQAVEKLNDSILEGTDCKLSVCRAQKKSERSAELKRKYEALKQERVQRYQGVNLYVKNIEEDLNDDGLRDHFSSFGTITSAKVMVDENGRSKGFGFVCFEKPEEATAAVTDMNSKMIGAKPLYVALAQRKEDRRAQLASQYMQRLATLRMGQQASGVPAMTQLYQPGQQGYFVPNPMNAQGRPGFQPQSAQIRGPPGQRVFQNQMFMQYPFNQRQVYPQQQGRPPMRTNDGRPQYGMAPRPAGAPRVGGPGVQMGGAPIRQQGPAPRGAPQKPFYQGPPRQQQPQQHSQQPAQQPGQQGQGQSGIVIHGQETLTSHMLAQAAPQEQKQLLGERIYALIEKMFPNHKEAGKITGMMLEIDNAELIMMLQDAELFRSKVEEAFGVLTNAQSAAASTSAPTAKN”: the “soluble on expression in E. coli” value is on record as “not soluble”.

Consider “MARAIHVFRTPDRFVAGTVGQPGNRTFYLQAVHDSRVVSVVLEKQQVAVLAERIGALLFEVNRRFGTPVPPEPTEIDDLSPLIMPVDAEFRVGTMGLGWDSEAQSVVVELLAVTDAEFDASVVLDDTEEGPDAVRVFLTPESARQFATRSYRVISAGRPPCPLCDEPLDPEGHICARTNGYRRDVLLGSGDDPAG”, for which the “soluble on expression in E. coli” value is “soluble”.

On to “MARFALVLHAHLPYVRAHGMWPFGEETLYEAMAETYLPLIRVLERLRAEGVEAPFTLGITPILAEQLADARIKEGFWAYAKDRLERAQGDYQRYRGTALEASARHQVAFWELTLDHFQRLSGDLVAAFRKAEEGGQVELITSNATHGYSPLLGYDEALWAQIKTGVSTYRRHFAKDPTGFWLPEMAYRPKGPWKPPVEGPPEGVRPGVDELLMRAGIRYTFVDAHLVQGGEPLSPYGEAALGPVESQEATYHVHELESGLRVLARNPETTLQVWSADYGYPGEGLYREFHRKDPLSGLHHWRVTHRKADLAEKAPYDPEAAFAKTEEHARHFVGLLERLAGRHPEGVILSPYDAELFGHWWYEGVAWLEAVLRLLAQNPKVRPVTAREAVQGPAVRTALPEGSWGRGGDHRVWLNEKTLDYWEKVYRAEGAMREAARRGVLPEGVLRQAMRELLLLEASDWPFLMETGQAEAYARERYEEHARAFFHLLKGASPEELRALEERDNPFPEADPRLYLFREA”, for which the “soluble on expression in E. coli” value is “soluble”.

Consider “MARHSALAQAERLEPLLTTNPLHGATLERIVTHLHDEYGWEELARRVPVKCFQNEPSVGSSLKFLRKTPWAREQVEAEYVKLARREDANPLIDALKRGQALDFTGVSQTKLHAALGWMLRHVEQNAQNLQLYFLPTLAHIQDVNFWPDAEPLPLLNLAIDRSALGAGDYEPGVVAELLRRGADANDPRFWPPLLHTVDVEGQAYQSKTRAPRTDLFDLLLAHGADPALEDSRGNTARSMAEAYGLRAVINKLNTLPAVSGSLEHHHHHH”, for which the “soluble on expression in E. coli” value is listed as “soluble”.

Consider “MARHVFLPPLSVHRHRPHPLGVCGFESFQTLHPRKRAARPDSRPLYELCRHTCLQDFPKIRHPLCRHGTQQHHYARFGAPAPMAAYEKCGGTRRRTSRRQPPFRTRPATQIRLRMAVPPPTYWAEYSTDRLNKEKKNNKPHFVFCTVSHLRRLKGHDVLLTAFARALAQCPQLRLNIGGSGQEEQRLKQQAADLGITHAVTFLGALQPEAVLDLMRNSDAFVLASRTETFGVVYIEALSQGLPVIATRCGGAESIVSDGNGYLVPVDDDDALADALIKMCEHHSDFEPARLRENCLNEFGENAVIGRLIGIFRQAIAEYGKKIPVKYSGLTKIRTRRRSRRQYK”, for which the “soluble on expression in E. coli” value is recorded as “not soluble”.

On to “MARILVIEDEPLVGHMLRRFLERAGHDVVWAPNGEVGLRRLAEGFDLVVCDLIMPGIPGEEVIRRIREEAGPPVLAVSASVSRESQRRALEAGAQAFLGKPFEAQAFLRVVEGLLRGT”, for which the “soluble on expression in E. coli” value was “soluble”.

In the case of “MARLIVNALVSVPLAEIEIGFVRSGGAGGQNVNKLATAAHLRFDIAASSLPETCKTRLLDHRDRRMTAEGIIVIKAQRFGTQEKNREDALARLRGLILQALAQRRPRKPTRPTLAAKKKRLDEKTRHGEIKRLRRRIGDLEHHHHHH”, the “soluble on expression in E. coli” value is recorded as “not soluble”.
